In PMC3290555 one finds stoichiometry N data, which are given here for two substances.

Test [1] addresses full-length CNPase construct (residues -1-378), mouse 2',3'-cyclic nucleotide 3'-phosphodiesterase lacking the 22-residue C-terminal tail (mouse). Kind of test: SEC-MALS; Sephadex S-200 column with online light scattering and refractive index detectors; 20 mM Bis-Tris-HCl pH 5.5, 300 mM NaCl, 1% glycerol, 1 mM DTT; monomer-dimer equilibrium. A general note: SEC sorts molecules by how far they enter the pores of the column.

Test [2] has as its target N-terminal domain of murine CNPase (residues -1-160) (mouse). Kind of test: SEC; Superdex 75 10/300 GL; 20 mM Na-HEPES pH 8, 200 mM NaCl, 1 mM DTT; 250 µl at 1.7 mg/ml injected; molecular weight markers run under the same conditions.

On to “full-length CNPase construct (residues -1-378), mouse 2',3'-cyclic nucleotide 3'-phosphodiesterase lacking the 22-residue C-terminal tail (enzyme)”, for which the stoichiometry N in test [1] is 2.
Regarding “N-terminal domain of murine CNPase (residues -1-160) (domain or fragment)”, the stoichiometry N in test [2] came to 2.

By stoichiometry N is commonly meant a count of units in the complex or per binding partner.
